Results taken from PMC4395482 (The Journal of Cell Biology, 2015).

Target: the molecule itself
Test: crystal structure

B1: hSac2 domain of human Sac2 (aa 593–760) (domain or fragment, UniProt Q9Y2H2 593-760, looked up)
chain: RSHQELISQLLQSYMKLLLPDDEKFHGGWALIDCDPSLIDATHRDVDVLLLLSNSAYYVAYYDDEVDKVNQYQRLSLENLEKIEIGPEPTLFGKPKFSCMRLHYRYKEASGYFHTLRAVMRNPEEDGKDTLQCIAEMLQITKQAMGSDLPIIEKKLERKSSKPHEDII
modifications: selenomethionine (selenomethionine protein crystals)
B1 was tested, and the “stoichiometry N” value was 2.
